10 molecules from patent US20220380442A1 (published 2022) can be followed below.

B1: ANDV-59 (antibody, V domains shown)
VH: QVVLQESGPGLVKPSETLSLTCTVSGGSINNYYWSWIRQPPGKGLEWIGWLYYSGITTFNPSLKSRVTISIDTSKNQVSLNLRSVTAADTAVYYCARVQGSDSSGYYHLKSDWFDPWGQGIPVTVSS
VL: QSVLTQPPSVSAAPGQTVTISCSGSSSNIRHNFVSWYQQLPGTAPKLVIYENNKRPSGIPDRFSGSKSGTSATLGITGLQTGDEADYYCGTWDSSLSAPHWVFGGGTRLTVL
B2: ANDV-5 (antibody, V domains shown)
VH: QVQLLQSGAEVKKPGSSVRVSCQSSGDIYNYYGISWVRQAPGQGLEWMGGIIPVYGRPNYVQKFRGRVTFTVDKSTSTAYMELSTLRADDTAVYYCARDTARSHYFGSGNDYGMDVWGQGTTVIVSS
VL: DIVMTQSPLSLPVTPGEPASISCRSSQSLLHSNGFNFVDWYLQKPGQSPQLLIYLGSTRASGVPDRFSGSGSGTDFTLEISRVEAEDVGVYYCMQALQFPRTFGQGTKLDIK
B3: ANDV-69 (antibody, V domains shown)
VH: QVHLQESGPGLVKPSETLSLTCAVSGYSISSGYCWGWIRQTPGKGLEWIGSIWHTGTTYYNPSLKSRVTISLDTSKNQFSLKLSSLTAADTAVYYCARAIYDSSGYSPFSGLDIWGQGTTVTISS
VL: QSVLTQPPSVSAAPGQKVTISCSGSSSNIGNNYVSWYQQVPGTAPKLLFYDNNKRPSGIPYRFSGSKSGTSATLAITGLQTGDEADYYCGTWDSSLNLWVFGGGTKLTVL
B4: ANDV-44 (antibody, V domains shown)
VH: QVQLVQSGAEVRKPGASVKVSCKASGYTFTSNGVSWVRQAPGQGLEWMGWIAGYDGYTNYTQKFQGRVTMTTDTSTTTVYMELRSLRFDDTAVYYCARDEGLHNWKFNAMDVWGQGTTVIVSS
VL: EIVLTQSPGTLSLSPGERATLSCRASQSVSSSYLAWYQQKPGQAPRLLMSETSRRATGIPDRFSGSVSGTDFILTINRVDPEDFAVYYCQQYSSPPWTFGQGTKVEIK
B5: ANDV-12 (antibody, V domains shown)
VH: EVQLVESGGGLVQPGGSLRLSCAASGFAFSSYWMTWVRQAPGKGLEFVANIKYDASEKYYVDSVKGRFTISRDNGRNSFYLQMNSLRAEDTAVYYCAVPGPGYSFAYDYWGQGTQVTVSS
VL: DIQMTQSPSSLSASVGDRITITCRASQSVGTYLNWYQQKPGKAPKLLIYEASSLQSGVPSRFSGSGSGTDFTLTISRLQPEDFATYSCQQSDIPPWTFGQGTKVEIK
B6: ANDV-2 (antibody, V domains shown)
VH: QVTLKESGPALVKPTQTLTLTCTFSGFSLSTSGMRVSWIRQPPGKALEWLARIDWDDDKFYSTSLKTRLTISKDTSKNQVVLIMTNMDPVDTATYYCARMMVGEGTFDYWGQGTLVTVSS
VL: DIQMTQFPSTLSASVGDRVTITCRASQDISSLLAWYQQKPGKAPKLLIYTASNLEGGVPSRFSGSGSGTEFTLTISSLQPDDFATYYCQQYIRYWTFGQGTKVEIK
B7: ANDV-54 (antibody, V domains shown)
VH: EVQLVESGGGVVQPGRSLRLSCAASGFTFSPYGMHWVRQAPGKGLEWVAVVWYDGNNKYYADSVKGRFTISRDNSKNTLYLQMNSLRAEDTAVYYCARENTPTYNSGYYFDYWGQGTLVTVSS
VL: QSALTQPASVSGSPGQSITISCTGTSSDVGSYDLVSWYQQHPGKAPKLIIYEGSKRPSGVSNRFSGSKSGNTASLTISGLQAEDEADYYCCSYAGSSTWVFGGGTKVTVL
B8: SNV-25 (antibody, V domains shown)
VH: QVQLQESGPGLVKPSGTLSLTCAVSGGSISSSNWWSWVRQPPGKGLEWIGEIYHSGSTNYNPSLKSRATISVDKSKNQFSLKLSSVTAADTAFYYCARARGEWLAHFDYWGQGTLVTVSS
VL: DIQMTQSPSTLSASVGDRVTITCRASQSISRWLAWYQQKPGKAPKLLIYKASSLESGVPSRFSGSGSGTEFTLTISSLQPDDFAIYYCQQYNTDKTFGQGTKVEIK
B9: SNV-56 (antibody, V domains shown)
VH: EVQLVESGGRLVRPGGSLRLSCAASGFTFSHYNMNWVRQAPGKGLEWVSSINSRNGYTYYADSVKGRFTISRDNAKNSLYLQMNSLRPEDTAVYYCARDPPLYSGYDLGYYYYGMDVWGQGTTVTVSS
VL: DIQMTQSPSTLSAFVGDRVTITCRANQNISKWLAWYQQKPGKAPNLLIHKASSLESGVPSRFSGSGSGTEFTLTISSLQPDDFATYSCQQYNSYPWAFGQGTRVEIK
B10: SNV-62 (antibody, V domains shown)
VH: QVLLVQSGAEVKKPGASVKVSCKASGYTFTSYFIHWVRQAPGQGLEWMGMINPISGNTNYAQKFQGRVTMTRDTSTRTVYMQLSSLTFEDTAVYSCVRWTTVPSSFDFWGQGTLVTVSS
VL: SYELTQPPSVSVSPGQTARITCSGDALPNQYVNWYQQKPGQAPVLMMFKDNQRPSGIPERFSGSRSGTTVTLSISGVQAEDEADYHCQSADRTATSVAFGGGTKLTVL

For the first experiment, the target named is T1, Puumala virus (PUUV) glycoproteins Gn and Gc displayed on Expi293F cells (full-length M segment, plasmid … (Puumala virus)).
T1 chain 1: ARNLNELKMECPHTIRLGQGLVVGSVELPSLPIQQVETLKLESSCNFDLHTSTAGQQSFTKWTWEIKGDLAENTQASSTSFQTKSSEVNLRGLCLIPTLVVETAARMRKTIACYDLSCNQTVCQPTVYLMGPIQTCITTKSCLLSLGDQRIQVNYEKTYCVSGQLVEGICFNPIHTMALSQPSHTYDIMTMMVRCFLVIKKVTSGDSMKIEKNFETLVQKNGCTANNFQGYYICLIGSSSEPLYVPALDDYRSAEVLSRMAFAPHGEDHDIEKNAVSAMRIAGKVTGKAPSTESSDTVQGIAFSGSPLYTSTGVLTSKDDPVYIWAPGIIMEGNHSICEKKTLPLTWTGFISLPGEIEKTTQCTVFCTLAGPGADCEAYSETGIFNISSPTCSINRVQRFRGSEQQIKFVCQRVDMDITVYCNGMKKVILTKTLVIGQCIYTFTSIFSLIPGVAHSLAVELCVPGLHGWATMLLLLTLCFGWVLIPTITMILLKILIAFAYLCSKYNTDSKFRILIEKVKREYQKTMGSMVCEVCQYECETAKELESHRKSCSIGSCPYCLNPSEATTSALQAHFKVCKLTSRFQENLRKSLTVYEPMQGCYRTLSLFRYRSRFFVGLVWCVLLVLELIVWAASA
T1 chain 2: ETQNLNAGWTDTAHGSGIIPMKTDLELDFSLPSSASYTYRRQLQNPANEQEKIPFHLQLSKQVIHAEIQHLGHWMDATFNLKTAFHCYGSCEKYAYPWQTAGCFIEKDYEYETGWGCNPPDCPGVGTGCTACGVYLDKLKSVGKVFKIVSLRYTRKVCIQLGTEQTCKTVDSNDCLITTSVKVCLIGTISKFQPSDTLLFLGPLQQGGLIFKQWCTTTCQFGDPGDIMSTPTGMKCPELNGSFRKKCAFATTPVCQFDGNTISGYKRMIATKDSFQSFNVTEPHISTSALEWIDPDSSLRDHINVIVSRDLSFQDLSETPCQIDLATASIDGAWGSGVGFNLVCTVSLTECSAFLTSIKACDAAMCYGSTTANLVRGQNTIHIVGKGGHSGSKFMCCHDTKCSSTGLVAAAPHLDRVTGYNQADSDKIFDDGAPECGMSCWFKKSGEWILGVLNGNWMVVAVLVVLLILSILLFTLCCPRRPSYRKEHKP
Description: flow.
In the case of B1, the EC50 (usually the concentration at which the effect is half-maximal) is 0.123 µg/mL.
Molecule B2 showed an EC50 of 0.148 µg/mL. This EC50 and that of the molecule before are within 1.5-fold of each other.
In turn, B3 registered an EC50 of 0.541 µg/mL.

The target in another experiment is T2, Sin Nombre virus (SNV) glycoproteins Gn and Gc displayed on the surface of Expi293F cells transfected with … (Sin Nombre virus). Description: flow.
The molecule B1 registered an EC50 of 0.0093 µg/mL.
Still for that read-out and setting: under B4 stands 1.09 µg/mL; under B5, 0.016 µg/mL.
In the case of B6, it took 0.011 µg/mL to reach a half-maximal effect (EC50).
In the case of B7, a half-maximal response (EC50) required 3.67 µg/mL.

Another experiment concerns the target T2, Sin Nombre virus (SNV) glycoproteins Gn …. Description: flow. This is another data set of the same source.
Regarding B8, the EC50 is 0.0072 µg/mL.
B9 displayed an EC50 of 0.066 µg/mL.
In turn, B10 registered an EC50 of 0.0026 µg/mL.
